The values below come from US20210187120A1 (WISCONSIN ALUMNI RESEARCH FOUNDATION, published 2021).

Assay [1] deals with T1, PD-L1 proteins (R&D systems) (UniProt Q9NZQ7 19-239, limits assumed).
T1 construct: Commercial recombinant PD-L1; It was immobilized on a CM5 chip for SPR and used in solution for the FP assay; also called immobilized PD-L1 proteins
In words: SPR (BIAcore X), PD-L1 immobilized on CM5 chip, four concentrations (17-42 µM by the legend). The protocol: (§1) Surface plasma resonance (SPR). SPR analysis was done using a BIAcore™ X (Pharmacia Biosensor AB, Uppsala, Sweden). In short, PD-L1 proteins (R&D systems) were immobilized onto carboxylated dextran-coated gold film surface of sensor chip (CM5 sensor chip, GE Healthcare) through EDC/NHS chemistry. 30 μL of sample solution was injected at a flow rate of […]. Sample solution was allowed to flow into both channels (channel 1 for reference, channel 2 with PD-L1), and the final SPR sensorgrams were obtained by subtracting the […].
On the technique in general: SPR reads the build-up and loss of mass on a sensor chip optically.

In assay [2] the target is T1, PD-L1 proteins (R&D systems). The assay is described as follows: fluorescence polarization, fβH2_mt titrated with PD-L1 in PBS; the concentration varied is that of PD-L1. The protocol: Fluorescence polarization (FP) assay. FP assay in PBS was used the PD-L1 binding and competition assays (λex=480 nm; λem=535 nm). Fluorescence anisotropy measurements were performed at room temperature, in a 384-well plate, and using an Infinite® M1000 Pro microplate reader (Tecan). A fβH2_mt/PD-L1 complex was used for the FP competition assay after 30 min incubation time and titrated with the competitors.
A general note: In fluorescence polarisation assays a small probe gives low polarisation when free and higher when bound to something large.

Assay [3] addresses T2, PD-L1 on 786-O cells (PD-L1 overexpressing human renal cell carcinoma line) and MCF-7 cells (low PD-L1) (human, UniProt Q9NZQ7 19-290). In words: cell-based or functional assay.
Assay [4] has as its target T1, PD-L1 proteins (R&D systems). The assay is described as follows: SPR, PD-L1 immobilized on CM5 chip. The protocol:
as §1

Assay [5] has the same target. The assay is described as follows: SPR (BIAcore X), PD-L1 immobilized on CM5 chip, four concentrations (45-270 nM by the legend). The protocol: as §1
Assay [6] concerns the target T2, PD-L1 on 786-O cells (PD-L1 …). In words: fluorescence microscopy (rhodamine), cells treated for 1 h.

What is called Kd is the constant that tells how readily two partners part at equilibrium. What is called koff is the first-order rate constant of dissociation. Low readings indicate a long-lived complex, high ones a short-lived complex. In general, EC50 (read off the curve) refers to the concentration needed to bring the measured effect to its halfway point. What is called kon is the rate constant with which the complex forms.

No end group written: not given here.

T1 sequence (Q9NZQ7 19-239 limits assumed): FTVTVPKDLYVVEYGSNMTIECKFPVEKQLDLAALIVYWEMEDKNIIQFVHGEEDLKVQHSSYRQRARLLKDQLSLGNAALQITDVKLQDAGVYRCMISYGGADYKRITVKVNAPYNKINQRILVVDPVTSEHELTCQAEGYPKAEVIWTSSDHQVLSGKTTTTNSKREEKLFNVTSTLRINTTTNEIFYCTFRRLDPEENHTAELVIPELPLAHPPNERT
T2 sequence (Q9NZQ7 19-290): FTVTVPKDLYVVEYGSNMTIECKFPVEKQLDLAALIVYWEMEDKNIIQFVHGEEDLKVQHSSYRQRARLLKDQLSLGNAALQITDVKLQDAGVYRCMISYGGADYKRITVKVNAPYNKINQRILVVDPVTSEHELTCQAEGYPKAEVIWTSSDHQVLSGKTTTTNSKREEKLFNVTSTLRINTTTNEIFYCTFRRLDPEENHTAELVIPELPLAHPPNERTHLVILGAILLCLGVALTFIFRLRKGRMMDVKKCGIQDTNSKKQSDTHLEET

B1: free βH2_mt peptide (peptide)
peptide: HVVWHRESPSGQTDTKAA-NH2
notes: also called H2_mt peptides; free peptides
In assay [1], B1 gave a Kd of 119000 nM and a koff of 0.127 s⁻¹.

B2: fluorescein-conjugated βH2_mt (fβH2_mt) peptide (peptide)
peptide: HVVWHRESPSGQTDTKAA-NH2
modifications: also: fluorescein-conjugated, position not given here
notes: Tracer of the fluorescence polarization assay
Take B2: in assay [2], the “EC50 (read off the curve)” value was roughly 300 nM.

B3: G7-βH2_mt (βH2_mt peptides conjugated to 90% acetylated G7 PAMAM dendrimer) (other)
peptide: HVVWHRESPSGQTDTKAA-NH2
modifications: not fully specified
notes: also called G7-βH2_mt conjugates; DPC
As to B3, the “IL-2 secretion from Jurkat T cells co-cultured with 786-O cells, compared with the non-treated cancer cells” value in assay [3] turned out to be 1.52 fold. The “fold decrease of the dissociation rate constant (kd) compared to the free peptide” value in assay [4] was roughly 180 times. In assay [5], this molecule came in with a Kd of 2.75 nM, a dissociation rate constant (koff) of 0.000693 s⁻¹ and a kon of 252000 M⁻¹ s⁻¹.

B4: pL1TZ (Trp-Zip βH2 mutant peptide) (peptide)
peptide: HKVWHWESPSGQWDTWAA-NH2
notes: Free tryptophan-zipper peptide; also called pLiTZ
For B4, the binding result in assay [6] was “binds”.
